# B1: Beclin-1 (Mus musculus), O88597 (parent)
# chain: MEGSKASSSTMQVSFVCQRCSQPLKLDTSFKILDRVTIQELTAPLLTTAQAKPGETQEEEANSGEEPFIETRQDGVSRRFIPPARMMSTESANSFTLIGEASDGGTMENLSRRLKVTGDLFDIMSGQTDVDHPLCEECTDTLLDQLDTQLNVTENECQNYKRCLEILEQMNEDDSEQLQRELKELALEEERLIQELEDVEKNRKVVAENLEKVQAEAERLDQEEAQYQREYSEFKRQQLELDDELKSVENQVRYAQIQLDKLKKTNVFNATFHIWHSGQFGTINNFRLGRLPSVPVEWNEINAAWGQTVLLLHALANKMGLKFQRYRLVPYGNHSYLESLTDKSKELPLYCSGGLRFFWDNKFDHAMVAFLDCVQQFKEEVEKGETRFCLPYRMDVEKGKIEDTGGSGGSYSIKTQFNSEEQWTKALKFMLTNLKWGLAWVSSQFYNK
# Variants of: B1
# Conditions: with bcl2_mouse Bcl2, P10417
# Chain of bcl2_mouse Bcl2, P10417 (P10417 whole entry): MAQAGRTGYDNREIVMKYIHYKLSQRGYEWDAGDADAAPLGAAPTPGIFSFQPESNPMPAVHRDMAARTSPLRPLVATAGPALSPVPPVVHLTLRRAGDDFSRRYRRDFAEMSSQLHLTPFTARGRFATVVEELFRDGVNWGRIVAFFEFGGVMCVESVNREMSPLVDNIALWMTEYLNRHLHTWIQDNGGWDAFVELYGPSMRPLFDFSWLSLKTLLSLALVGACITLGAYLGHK
row,effect of a mutation on the interaction,Variant
1,decreasing interaction strength,MEGSKASSSTMQVSFVCQRCSQPLKLDTSFKILDRVTIQELTAPLLTTAQAKPGETQEEEANSGEEPFIETRQDGVSRRFIPPARMMSTESANSFTLIGEASDGGTMENLSRRLKVTGDLADIMSGQTDVDHPLCEECTDTLLDQLDTQLNVTENECQNYKRCLEILEQMNEDDSEQLQRELKELALEEERLIQELEDVEKNRKVVAENLEKVQAEAERLDQEEAQYQREYSEFKRQQLELDDELKSVENQVRYAQIQLDKLKKTNVFNATFHIWHSGQFGTINNFRLGRLPSVPVEWNEINAAWGQTVLLLHALANKMGLKFQRYRLVPYGNHSYLESLTDKSKELPLYCSGGLRFFWDNKFDHAMVAFLDCVQQFKEEVEKGETRFCLPYRMDVEKGKIEDTGGSGGSYSIKTQFNSEEQWTKALKFMLTNLKWGLAWVSSQFYNK [F121A]

# Reference: IntAct's records for PubMed 29849149
